These results are taken from patent publication US20240101716A1.

The target of this experiment is PD-L1 (blocking assay of Example 11) (UniProt Q9NZQ7).
Chain of PD-L1 (blocking assay of Example 11) (Q9NZQ7 19-239 limits assumed): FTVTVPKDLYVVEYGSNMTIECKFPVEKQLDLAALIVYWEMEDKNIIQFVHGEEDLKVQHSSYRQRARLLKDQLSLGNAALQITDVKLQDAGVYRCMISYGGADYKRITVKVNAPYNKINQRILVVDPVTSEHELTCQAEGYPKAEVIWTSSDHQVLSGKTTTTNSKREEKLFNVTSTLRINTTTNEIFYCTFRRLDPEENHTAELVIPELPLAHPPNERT

The substance Human IgG1 (antibody) returned an EC50 printed for a flat curve: luminescence stays at the baseline of about 50000 RLU up to Log10 about 2.2 nM (no blockade), PD-1/PD-L1 Blockade Assay of 0.0395 nM.

Tecentriq (antibody): the EC50, luminescence (RLU) in the PD-1/PD-L1 Blockade Assay stood at 0.318 nM.
